Experimental data reported in PMC11289882 (2024).

Columns and labels:
[1] = biological target: T1, HIF-1α 776-826 (Homo sapiens, UniProt Q16665); experiment: anisotropy
T1 chain: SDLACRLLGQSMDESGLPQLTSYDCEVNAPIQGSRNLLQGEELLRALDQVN

[2] = biological target: T2, CITED2 variant 3b 218-256 (Homo sapiens, UniProt Q99967, beta3-amino acid replacements in loop); experiment: ITC
T2 chain: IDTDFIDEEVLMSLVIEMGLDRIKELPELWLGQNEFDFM

[3] = biological target: T3, CITED2 variant 2 218-256 (Homo sapiens, UniProt Q99967, beta3-amino acid replacements in αA helix); experiment: ITC
T3 chain: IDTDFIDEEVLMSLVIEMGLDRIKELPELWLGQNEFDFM

[4] = biological target: T4, CITED2 variant 3c 218-256 (Homo sapiens, UniProt Q99967, beta3-amino acid replacements in loop); experiment: ITC
T4 chain: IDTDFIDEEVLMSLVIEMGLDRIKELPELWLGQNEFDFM

[5] = biological target: T5, CITED2 variant 4 218-256 (Homo sapiens, UniProt Q99967, beta3-amino acid replacements in C-terminus); experiment: ITC
T5 chain: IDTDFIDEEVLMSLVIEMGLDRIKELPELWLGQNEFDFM

[6] = biological target: T6, CITED2 variant 1 218-256 (Homo sapiens, UniProt Q99967, beta3-amino acid replacements in N-terminal tail); experiment: ITC
T6 chain: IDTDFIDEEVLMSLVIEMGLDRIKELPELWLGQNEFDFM

[7] = biological target: T7, CITED2 variant 3a 218-256 (Homo sapiens, UniProt Q99967, beta3-amino acid replacements in loop (LPEL motif)); experiment: ITC
T7 chain: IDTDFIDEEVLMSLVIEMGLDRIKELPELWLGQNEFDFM

- Kd [1]: 57 nM
- Kd [2]: 98 nM
- Kd [3]: 16 nM
- Kd [4]: 29 nM
- Kd [5]: 17 nM
- Kd [6]: 19 nM
- Kd [7]: 675 nM
B1: p300 TAZ1 330-420 (protein)
chain: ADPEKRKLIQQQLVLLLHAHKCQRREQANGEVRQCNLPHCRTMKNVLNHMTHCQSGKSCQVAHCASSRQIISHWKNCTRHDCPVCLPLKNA
